In patent US9526766B2, “Potentiation of antibiotic treatment with a protein-lipid complex” (priority 2012, dated 2016):
Entries after “also recorded” stand apart in the source; their conditions may differ.

Columns and labels:
Streptococcus pneumoniae = assay: Short-time kill assay on planktonic cultures; assay type: cell-based; conditions: for Short-time killing: ALAFAC 50 μg/ml, alone or combined
[1] = system: Staphylococcus aureus biofilms; assay: Static biofilm model, viable counts; assay type: cell-based; conditions: for Biofilm death / reduction in biofilm biomass: methicillin 1,000 μg/ml monotherapy, combination with 100 μg/ml ALAFAC
Protocol: Static Biofilm Model. Staphylococci were grown in TSB to mid-logarithmic phase (OD600=0.5), washed, and resuspended in fresh pre-warmed medium to a density of 2×10^4 CFU in 500 μl volume, and suspensions were used to seed polystyrene 24-well plates. Bacteria were cultured at 37° C. for 12 hours, after which biofilms were washed with PBS to eliminate planktonic bacteria and were exposed to TSB with indicated concentrations of ALAFAC and/or antibiotics for 24 hours at 37° C. Biofilms were then washed in PBS, sonicated and detached by scraping the surface in the presence of 100 μL PBS followed by a rinse with 100 μL PBS. Collected cells were vortexed twice for 20 seconds at high speed and the dispersed biofilm cells were first observed by microscopy to ensure proper dispersion and then diluted in a 10-fold dilution series where 100 μl of each dilution was plated on blood agar plates to determine viable CFUs per ml after overnight growth at 37° C. Colony counts from plates carrying 20-200 colonies were used to determine the viable counts and are reported as the total number of colony-forming units per biofilm.

Staphylococcus aureus = assay: MIC by broth microdilution, antibiotics with and without ALAFAC; assay type: cell-based
Method in brief: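 Broth microdilution per CLSI in tryptic soy broth, two-fold antibiotic dilutions in triplicate with or without ALAFAC, inoculum 10^5 CFU/mL. Incubated 24 h at 37 °C with OD600 read every 5 min; MIC is lowest concentration showing no OD600 increase.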

[2] = system: S. pneumoniae nasopharyngeal colonization; assay: Murine nasopharyngeal colonization model, intranasal treatment; assay type: in vivo, Streptococcus pneumoniae; conditions: ALAFAC 50 μg, alone or combined
Protocol: Methodology: Six-week-old female BALB/cByJ mice from Jackson Laboratories (Bar Harbor, Me., U.S.A.) were maintained in filter-top cages on standard laboratory chow and water ad libitum until use. Mice were colonized as described previously. In short, 20 μl of a bacterial suspension containing 5×10^6 CFUs of EF3030 pneumococci, 1×10^8 CFUs of SP670 pneumococci, or 5×10^7 NRS70 methicillin-resistant S. aureus in PBS were pipetted into the nares of non-anesthetized mice. […] Colonization burden was then assessed after euthanizing the animals by enumerating viable bacteria from harvested nasopharyngeal tissue after the nasal wash. Nasopharyngeal tissue was dissected out as described by removing the upper skull bone, and harvesting the tissue present in the nasal conchae with forceps. Bacterial load was measured by determining viable plate counts from the homogenized tissue.
Mice were colonized as described. In short, 20 μl of a bacterial suspension containing 5×10^6 CFUs of EF3030 pneumococci in PBS or 1×10^8 CFUs of SP670 pneumococci in PBS were pipetted into the nares of non-anesthetized mice. […] Colonization burden was then assessed after euthanizing the animals by enumerating viable bacteria both in a nasopharyngeal lavage obtained by injecting 100 μL PBS in the trachea of mice and collecting it as it flowed out the nares, and from harvested nasopharyngeal tissue after the nasal wash. Nasopharyngeal tissue was dissected out as described by removing the upper skull bone, and harvesting the tissue present in the nasal conchae with forceps. Bacterial load was measured by determining viable plate counts from the nasal lavage or from homogenized tissue.

B1: ALAFAC: non-covalent complex of alpha-lactalbumin and fatty acid (oleic acid); labeled HAMLET or HL in drawings and tables (protein, UniProt P00709 20-142, looked up)
Alpha-lactalbumin: KQFTKCELSQLLKDIDGYGGIALPELICTMFHTSGYDTQAIVENNESTEYGLFQISNKLWCKSSQVPQSRNICDISCDKFLDDDITDDIMCAKKILDIKGIDYWLAHKALCTEKLEQWLCEKL
modifications: complexed with oleic acid
With B1 the Short-time killing (Streptococcus pneumoniae; D39, 1 hour, gentamicin 50 μg/ml, 7.7 log10 inoculum) was “insignificant killing”, the Short-time killing (Streptococcus pneumoniae; D39, 4 hours, erythromycin 200 μg/ml, 7.2 log10 inoculum) was “insignificant bactericidal activity” and the “Fold higher concentration of ALAFAC alone required for activity similar to the combination” value (Streptococcus pneumoniae; D39, versus 50 μg/ml ALAFAC + 20 μg/ml penicillin G, 4 hours) was > 5 fold. The “Concentration required to eradicate each inoculum” value (Streptococcus pneumoniae; all pneumococcal strains, 1 hour) was “approximately 15 times the MIC”, the “Concentration to eradicate an inoculum of 10^8 pneumococci” value (Streptococcus pneumoniae; time-kill assay, 1 hour) was 300 μg/ml and the “Biofilm bactericidal activity, reduction in viable bacteria” value ([1]; MRSA NRS 70 and MSSA 11090306 biofilms, 24 hours, ALAFAC 200 μg/mL (12 μM), methicillin 250 μg/mL (660 μM), alone or combined) was “failed to induce bactericidal activity”. For the same molecule, the “Biofilm death / reduction in biofilm biomass” value ([1]; MRSA NRS70 biofilm) was “no death”, the “Biofilm death / reduction in biofilm biomass” value ([1]; MSSA 11090306 biofilm) was “no death” and the Biofilm viability ([1]; NRS 1 and NRS 384 biofilms, ALAFAC 500 μg/ml (30 μM), gentamicin 50 μg/ml (105 μM), alone or combined) was “Neither ALAFAC (500 μg/ml; 30 μM) nor gentamicin (50 μg/ml; 105 μM) had any effect”. The “[HL] to sensitize” value (Staphylococcus aureus; 10307570, sensitive to methicillin) was 6 µM, the “[HL] to sensitize” value (Staphylococcus aureus; 11090306, sensitive to methicillin) was 0 µM and the “Additional ALAFAC required for equivalent adjuvant activity” value (Staphylococcus aureus; Mueller Hinton broth versus TSB) was “approximately 20%”. The “[HL] to sensitize” value (Staphylococcus aureus; NRS1, sensitive to gentamicin) was 48 µM, the “[HL] to sensitize” value (Staphylococcus aureus; NRS1, sensitive to methicillin) was 48 µM and the “[HL] to sensitize” value (Staphylococcus aureus; NRS1, sensitive to vancomycin) was 18 µM. For the same molecule, the “[HL] to sensitize” value (Staphylococcus aureus; NRS70, sensitive to methicillin) was 3 µM, the “[HL] to sensitize” value (Staphylococcus aureus; NRS71, sensitive to methicillin) was 54 µM and the “[HL] to sensitize” value (Staphylococcus aureus; NRS100, sensitive to methicillin) was 18 µM. For the same molecule, the “[HL] to sensitize” value (Staphylococcus aureus; NRS123, sensitive to erythromycin) was 0 µM, the “[HL] to sensitize” value (Staphylococcus aureus; NRS123, sensitive to methicillin) was 12 µM and the “[HL] to sensitize” value (Staphylococcus aureus; NRS384, sensitive to erythromycin) was 6 µM. For the same molecule, the “[HL] to sensitize” value (Staphylococcus aureus; NRS384, sensitive to gentamicin) was 0 µM, the “[HL] to sensitize” value (Staphylococcus aureus; NRS384, sensitive to methicillin) was 6 µM and the “[HL] to sensitize” value (Staphylococcus aureus; NRS384, sensitive to vancomycin) was 0 µM. For the same molecule, the “Concentration of ALAFAC alone without activity” value (Staphylococcus aureus; any of the S. aureus strains tested) was “exceeding 5,000 μg/ml”, the “ALAFAC concentration required to convert all antibiotic-resistant strains to sensitivity” value (Staphylococcus aureus; methicillin, gentamicin, erythromycin and vancomycin) was “at most 54 μM” and the “Bacterial burden, nasopharyngeal tissue and nasal lavage” value ([2]; mice colonized with EF3030 for 48 hours, single intranasal dose, gentamicin, 6 hours) was “no decrease in bacterial burden”. For the same molecule, the “Colonization level / bacterial burden” value ([2]; mice colonized with SP670 for 48 hours, penicillin up to 100 μg (5,000 μg/ml) intranasally, 12 hours) was “no effect; also recorded: no decrease in the pneumococcal burden”.
